This note sets out measurements from IntAct's records for PubMed 31515488.

B1: Protein DDI1 homolog 1 (Homo sapiens), Q8WTU0 (parent)
chain: MLITVYCVRRDLSEVTFSLQVSPDFELRNFKVLCEAESRVPVEEIQIIHMERLLIEDHCSLGSYGLKDGDIVVLLQKDNVGPRAPGRAPNQPRVDFSGIAVPGTSSSRPQHPGQQQQRTPAAQRSQGLASGEKVAGLQGLGSPALIRSMLLSNPHDLSLLKERNPPLAEALLSGSLETFSQVLMEQQREKALREQERLRLYTADPLDREAQAKIEEEIRQQNIEENMNIAIEEAPESFGQVTMLYINCKVNGHPLKAFVDSGAQMTIMSQACAERCNIMRLVDRRWAGVAKGVGTQRIIGRVHLAQIQIEGDFLQCSFSILEDQPMDMLLGLDMLRRHQCSIDLKKNVLVIGTTGTQTYFLPEGELPLCSRMVSGQDESSDKEITHSVMDSGRKEH
partner: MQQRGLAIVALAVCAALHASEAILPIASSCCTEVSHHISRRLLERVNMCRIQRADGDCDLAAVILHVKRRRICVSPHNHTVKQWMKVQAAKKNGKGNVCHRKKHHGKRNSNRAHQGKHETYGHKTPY
B2: Caspase recruitment domain-containing protein 9 (Homo sapiens), Q9H257 (parent)
chain: MSDYENDDECWSVLEGFRVTLTSVIDPSRITPYLRQCKVLNPDDEEQVLSDPNLVIRKRKVGVLLDILQRTGHKGYVAFLESLELYYPQLYKKVTGKEPARVFSMIIDASGESGLTQLLMTEVMKLQKKVQDLTALLSSKDDFIKELRVKDSLLRKHQERVQRLKEECEAGSRELKRCKEENYDLAMRLAHQSEEKGAALMRNRDLQLEIDQLKHSLMKAEDDCKVERKHTLKLRHAMEQRPSQELLWELQQEKALLQARVQELEASVQEGKLDRSSPYIQVLEEDWRQALRDHQEQANTIFSLRKDLRQGEARRLRCMEEKEMFELQCLALRKDSKMYKDRIEAILLQMEEVAIERDQAIATREELHAQHARGLQEKDALRKQVRELGEKADELQLQVFQCEAQLLAVEGRLRRQQLETLVLSSDLEDGSPRRSQELSLPQDLEDTQLSDKGCLAGGGSPKQPFAALHQEQVLRNPHDAGLSSGEPPEKERRRLKESFENYRRKRALRKMQKGWRQGEEDRENTTGSDNTDTEGS
partner: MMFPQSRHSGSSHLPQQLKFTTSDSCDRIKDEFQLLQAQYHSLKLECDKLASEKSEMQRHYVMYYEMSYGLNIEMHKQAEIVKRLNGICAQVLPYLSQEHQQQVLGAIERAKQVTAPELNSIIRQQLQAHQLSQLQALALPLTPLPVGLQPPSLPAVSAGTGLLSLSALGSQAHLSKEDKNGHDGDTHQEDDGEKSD
B3: Calcium-binding and coiled-coil domain-containing protein 2 (Homo sapiens), Q13137 (parent)
chain: MEETIKDPPTSAVLLDHCHFSQVIFNSVEKFYIPGGDVTCHYTFTQHFIPRRKDWIGIFRVGWKTTREYYTFMWVTLPIDLNNKSAKQQEVQFKAYYLPKDDEYYQFCYVDEDGVVRGASIPFQFRPENEEDILVVTTQGEVEEIEQHNKELCKENQELKDSCISLQKQNSDMQAELQKKQEELETLQSINKKLELKVKEQKDYWETELLQLKEQNQKMSSENEKMGIRVDQLQAQLSTQEKEMEKLVQGDQDKTEQLEQLKKENDHLFLSLTEQRKDQKKLEQTVEQMKQNETTAMKKQQELMDENFDLSKRLSENEIICNALQRQKERLEGENDLLKRENSRLLSYMGLDFNSLPYQVPTSDEGGARQNPGLAYGNPYSGIQESSSPSPLSIKKCPICKADDICDHTLEQQQMQPLCFNCPICDKIFPATEKQIFEDHVFCHSL
partner: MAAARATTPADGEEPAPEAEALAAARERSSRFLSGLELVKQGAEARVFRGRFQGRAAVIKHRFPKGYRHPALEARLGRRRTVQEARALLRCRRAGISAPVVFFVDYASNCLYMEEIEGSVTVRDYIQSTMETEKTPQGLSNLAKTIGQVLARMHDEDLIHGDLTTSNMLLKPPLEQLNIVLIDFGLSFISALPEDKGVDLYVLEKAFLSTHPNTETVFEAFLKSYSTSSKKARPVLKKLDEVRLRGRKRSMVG
B4: DCC-interacting protein 13-alpha (Homo sapiens), Q9UKG1 (parent)
chain: MPGIDKLPIEETLEDSPQTRSLLGVFEEDATAISNYMNQLYQAMHRIYDAQNELSAATHLTSKLLKEYEKQRFPLGGDDEVMSSTLQQFSKVIDELSSCHAVLSTQLADAMMFPITQFKERDLKEILTLKEVFQIASNDHDAAINRYSRLSKKRENDKVKYEVTEDVYTSRKKQHQTMMHYFCALNTLQYKKKIALLEPLLGYMQAQISFFKMGSENLNEQLEEFLANIGTSVQNVRREMDSDIETMQQTIEDLEVASDPLYVPDPDPTKFPVNRNLTRKAGYLNARNKTGLVSSTWDRQFYFTQGGNLMSQARGDVAGGLAMDIDNCSVMAVDCEDRRYCFQITSFDGKKSSILQAESKKDHEEWICTINNISKQIYLSENPEETAARVNQSALEAVTPSPSFQQRHESLRPAAGQSRPPTARTSSSGSLGSESTNLAALSLDSLVAPDTPIQFDIISPVCEDQPGQAKAFGQGGRRTNPFGESGGSTKSETEDSILHQLFIVRFLGSMEVKSDDHPDVVYETMRQILAARAIHNIFRMTESHLLVTCDCLKLIDPQTQVTRLTFPLPCVVLYATHQENKRLFGFVLRTSSGRSESNLSSVCYIFESNNEGEKICDSVGLAKQIALHAELDRRASEKQKEIERVKEKQQKELNKQKQIEKDLEEQSRLIAASSRPNQASSEGQFVVLSSSQSEESDLGEGGKKRESEA
partner: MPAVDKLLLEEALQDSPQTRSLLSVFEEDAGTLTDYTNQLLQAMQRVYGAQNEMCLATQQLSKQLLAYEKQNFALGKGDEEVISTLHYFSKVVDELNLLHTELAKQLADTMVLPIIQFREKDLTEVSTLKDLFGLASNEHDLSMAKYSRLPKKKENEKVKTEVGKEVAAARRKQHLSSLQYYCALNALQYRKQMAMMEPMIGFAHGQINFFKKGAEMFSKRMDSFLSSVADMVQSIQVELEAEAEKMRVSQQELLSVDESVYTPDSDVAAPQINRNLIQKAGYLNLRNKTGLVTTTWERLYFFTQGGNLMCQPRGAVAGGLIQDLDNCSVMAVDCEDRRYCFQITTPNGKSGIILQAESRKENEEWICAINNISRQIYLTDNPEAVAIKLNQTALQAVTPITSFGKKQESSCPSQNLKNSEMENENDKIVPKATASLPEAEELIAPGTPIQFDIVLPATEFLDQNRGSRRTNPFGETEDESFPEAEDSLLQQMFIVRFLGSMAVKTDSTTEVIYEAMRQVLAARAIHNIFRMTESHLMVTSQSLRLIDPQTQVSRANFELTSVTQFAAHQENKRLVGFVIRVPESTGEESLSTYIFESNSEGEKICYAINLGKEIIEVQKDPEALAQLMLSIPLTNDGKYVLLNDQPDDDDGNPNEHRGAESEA
B5: Ornithine decarboxylase antizyme 3 (Homo sapiens), Q9UMX2 (parent)
chain: MPCKRCRPSVYSLSYIKRGKTRNYLYPIWSPYAYYLYCYKYRITLREKMLPRCYKSITYKEEEDLTLQPRSCLQCSESLVGLQEGKSTEQGNHDQLKELYSAGNLTVLATDPLLHQDPVQLDFHFRLTSQTSAHWHGLLCDRRLFLDIPYQALDQGNRESLTATLEYVEEKTNVDSVFVNFQNDRNDRGALLRAFSYMGFEVVRPDHPALPPLDNVIFMVYPLERDVGHLPSEPP
partner: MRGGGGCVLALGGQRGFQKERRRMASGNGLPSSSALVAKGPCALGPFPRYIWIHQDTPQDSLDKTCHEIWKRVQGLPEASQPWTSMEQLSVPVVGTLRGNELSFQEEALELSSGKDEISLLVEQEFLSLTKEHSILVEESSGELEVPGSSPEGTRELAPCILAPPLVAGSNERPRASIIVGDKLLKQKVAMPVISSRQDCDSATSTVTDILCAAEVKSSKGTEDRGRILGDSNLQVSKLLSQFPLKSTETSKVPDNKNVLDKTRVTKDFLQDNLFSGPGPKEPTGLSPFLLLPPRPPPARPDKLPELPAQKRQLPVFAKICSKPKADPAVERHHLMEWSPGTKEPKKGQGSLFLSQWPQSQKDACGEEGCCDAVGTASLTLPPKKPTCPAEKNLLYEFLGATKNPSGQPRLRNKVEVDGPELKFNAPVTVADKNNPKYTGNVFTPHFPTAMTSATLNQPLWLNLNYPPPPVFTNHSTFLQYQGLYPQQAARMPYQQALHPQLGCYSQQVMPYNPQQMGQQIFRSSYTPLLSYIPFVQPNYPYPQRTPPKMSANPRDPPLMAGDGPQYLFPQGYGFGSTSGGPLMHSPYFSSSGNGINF

In the first experiment the parent is B1. Conditions: with ccl28_human CCL28, Q9NRJ3.
In the case of N228T, the “effect of a mutation on the interaction” value was “with no effect”.

The variants in another experiment derive from B2. Conditions: with tle5_human TLE5, Q08117.
With R173H, the “effect of a mutation on the interaction” value was “with no effect”.

The variants in another experiment derive from B3. As to conditions: with prpk_human TP53RK.
Turning to V248A, the “effect of a mutation on the interaction” value is given as “with no effect”.

The next experiment covers variants of B4. As to conditions: with dp13b_human APPL2, Q8NEU8.
For the variant E67G, the “effect of a mutation on the interaction” value is given as “with no effect”.

Take E643Q: the “effect of a mutation on the interaction” value is recorded as “with no effect”.

In a further experiment the parent is B5. As to conditions: with ca094_human C1orf94, Q6P1W5.
For the variant R193Q, the “effect of a mutation on the interaction” value was “with no effect”.
